Experimental data taken from publication PMC3382428.

What was measured:
[1] = molecular target: gp130 on human cord blood Lin-CD34+ cells (human (endogenous in cord blood Lin-CD34+ cells)) (UniProt P40189)
[2] = molecular target: gp130 on Ba/F3-gp130 cells (UniProt P40189)
IL-6R (Homo sapiens) = IL-6R (Homo sapiens) (UniProt P08887); conditions: cited from earlier work
Sequence of IL-6R (Homo sapiens) (P08887 20-355): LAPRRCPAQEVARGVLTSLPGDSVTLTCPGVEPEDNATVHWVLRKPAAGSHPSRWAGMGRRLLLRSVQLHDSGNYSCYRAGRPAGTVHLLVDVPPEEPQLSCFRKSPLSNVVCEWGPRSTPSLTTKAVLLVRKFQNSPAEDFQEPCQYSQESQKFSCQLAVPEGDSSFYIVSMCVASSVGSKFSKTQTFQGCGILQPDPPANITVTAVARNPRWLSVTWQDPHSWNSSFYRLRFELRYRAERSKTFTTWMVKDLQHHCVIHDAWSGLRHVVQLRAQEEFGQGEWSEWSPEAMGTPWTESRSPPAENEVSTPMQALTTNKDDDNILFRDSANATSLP

Sequence of gp130 on Ba/F3-gp130 cells (P40189 23-918): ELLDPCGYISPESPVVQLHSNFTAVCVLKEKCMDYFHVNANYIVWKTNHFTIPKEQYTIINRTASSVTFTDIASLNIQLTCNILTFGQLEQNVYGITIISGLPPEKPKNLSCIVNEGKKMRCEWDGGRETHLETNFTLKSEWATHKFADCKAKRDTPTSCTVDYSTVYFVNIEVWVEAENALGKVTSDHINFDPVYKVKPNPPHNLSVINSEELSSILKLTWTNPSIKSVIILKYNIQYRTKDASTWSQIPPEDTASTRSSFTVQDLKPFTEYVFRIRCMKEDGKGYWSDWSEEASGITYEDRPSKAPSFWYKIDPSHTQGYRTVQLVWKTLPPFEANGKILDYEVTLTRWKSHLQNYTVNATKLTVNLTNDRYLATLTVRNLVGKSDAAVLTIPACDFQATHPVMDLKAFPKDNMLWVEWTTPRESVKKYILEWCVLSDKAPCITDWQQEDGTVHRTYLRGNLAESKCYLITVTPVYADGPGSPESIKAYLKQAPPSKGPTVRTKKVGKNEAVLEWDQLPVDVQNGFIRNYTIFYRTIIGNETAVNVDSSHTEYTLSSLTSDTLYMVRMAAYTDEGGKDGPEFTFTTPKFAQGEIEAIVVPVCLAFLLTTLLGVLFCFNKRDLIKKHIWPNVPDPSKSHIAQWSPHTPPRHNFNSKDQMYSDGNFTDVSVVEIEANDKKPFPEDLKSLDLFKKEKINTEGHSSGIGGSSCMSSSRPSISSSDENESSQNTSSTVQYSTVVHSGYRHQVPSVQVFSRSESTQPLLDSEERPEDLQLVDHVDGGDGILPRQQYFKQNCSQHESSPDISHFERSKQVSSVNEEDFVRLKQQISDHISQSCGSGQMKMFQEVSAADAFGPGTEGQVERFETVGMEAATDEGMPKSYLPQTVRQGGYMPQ
Sequence of gp130 on human cord blood Lin-CD34+ cells (human (endogenous in cord blood Lin-CD34+ cells)) (P40189 23-918): as above
Sequence of IL-6 (P05231 30-212): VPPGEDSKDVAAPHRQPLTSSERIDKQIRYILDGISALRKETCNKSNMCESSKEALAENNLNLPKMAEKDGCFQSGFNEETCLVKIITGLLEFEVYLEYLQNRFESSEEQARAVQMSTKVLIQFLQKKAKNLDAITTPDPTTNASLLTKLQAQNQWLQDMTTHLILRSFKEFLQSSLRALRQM

Substance | CD235a+ (erythroid) cells in Lin-CD34+ liquid culture with 50 ng/ml H11, day 14, flow cytometry (27% with Hyper-IL-6, 20% in control culture) [1] [%] | proliferation of Ba/F3-gp130 cells (MTT, 72 h): dose of H11 for half-maximum proliferation [2] [pM] | Kd (IL-6R (Homo sapiens)) [nM]
Hyper IL-11 (H11) (from UniProt Q14626 23-365; P20809 19-199) | 39 | 800 to 900 | 
IL-6 (from UniProt P05231) |  |  | 1
